The record followed here is patent publication US20200172620A1.

The target of experiment [1] is human CD8 on cells (FACS) (human) (UniProt P01732). The experiment in a line: FACS.
The target in experiment [2] is human CD8 (as used in SPR) (human) (UniProt P01732). As to the kind of experiment: SPR.
human CD8 (as used in SPR) (human), sequence (P01732 22-182): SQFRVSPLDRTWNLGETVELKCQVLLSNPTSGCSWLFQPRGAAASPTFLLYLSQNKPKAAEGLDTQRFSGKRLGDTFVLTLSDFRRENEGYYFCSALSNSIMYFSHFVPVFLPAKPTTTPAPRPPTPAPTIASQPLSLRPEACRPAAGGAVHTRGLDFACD

human CD8 on cells (FACS) (human), sequence (P01732 22-235): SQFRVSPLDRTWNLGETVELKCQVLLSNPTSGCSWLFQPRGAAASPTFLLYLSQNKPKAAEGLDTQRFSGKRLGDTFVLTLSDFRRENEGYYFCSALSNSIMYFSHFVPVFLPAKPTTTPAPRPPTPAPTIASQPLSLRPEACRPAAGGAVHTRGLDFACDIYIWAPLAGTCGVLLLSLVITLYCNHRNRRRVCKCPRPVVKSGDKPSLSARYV

B1: OKT8 (antibody, from another filing, V domains shown)
VH: EVQLQQSGAELVKPGASVKLSCTASGFNIKDTYIHFVRQRPEQGLEWIGRIDPANDNTLYASKFQGKATITADTSSNTAYMHLCSLTSGDTAVYYCGRGYGYYVFDHWGQGTTLTVSS
VL: DVQINQSPSFLAASPGETITINCRTSRSISQYLAWYQEKPGKTNKLLIYSGSTLQSGIPSRFSGSGSGTDFTLTISGLEPEDFAMYYCQQHNENPLTFGAGTKLELK
In the case of B1, the dissociation constant Kd in experiment [1] amounted to 20 nM; in experiment [2] it was 13 nM. Further, the Ratio of KD huOKT8.v1/KD variant for binding to huCD8 in experiment [2] came out at 1 X.
